{"source": "paper PMC4726530", "about": "(PLoS ONE, 2016)", "molecules": {"B1": {"name": "GAOR3 (Sulfurisphaera tokodaii str. 7) (protein)", "chain": "MYVGQRVKRKEDLKLITGSGRYIDDIEIPGNLYIAILRSSVAHAKLKKIEYSDVLKLNGVYGVITGLTIPVENRPRNFPMAKDEILYMGQPIAAVLAKDRYVAVDALDYISYDYEELPAVIDPEEAINSKVKAIEDYDNIIYKKTYSGGNAEEAYEKSDVKIEEKLVISRVYAAPMEPRGLVVDYQQDRLTVYASTQSPHYMRSFLLSAFGDKVNDIRVIQADVGGAFGSKLFPYPEDYIAVFAALTYKRPVKLVNTRRDDLFSTYHSRGQIHKVKVGASKDGKINSILDDLIIDLGAAWHGTYLADIPATLITGPYDIKNAKVNVFGVLTNKTPLDQYRGAGRPEAAFVYERIMDIVADELKIDPIELRRKNIIQSTPYKNVMGLTYDSGDYNALLTKAESYYREMEQRAEELRRQGKRVGVGLSFYIEQNNFGPWESASVRLLSNGKVEVVIGAAPHGQGTATGIAQIVADELEISIDDVEVTWGDTDKISNAFGTYGSRSLTLAGNAALLASRKLKENIMKLAAQFMKSDVEELQYKDGKVFNPKTGKSMTLKEIAIKVTSNLGGVWRYKAEPTLEATASFGFDNYTFPYGSHIAMVEVTDEGVVKVLDYVAIDDIGVVVNPMLAEGQVHGGVIQGFGETLLEQIVYDNNGNLLTSTFADYLIPSAVESFNMKWFYTEIGKSNAPLPAKGIGEGATIGAPPALIRAIERAIGKRLTALPVKMEELSK", "notes": "LMS hetero-trimer; L 730 aa, M 278 aa, S 168 aa; 85 kDa by gel filtration; M-subunit); Putative oxidoreductase iron-sulfur subunit (S-subunit)"}, "B2": {"name": "STK23390, molybdo-pyranopterin L-subunit of glyceraldehyde oxidoreductase GAOR2 (natural protein, UniProt Q96Y29 1-706, looked up)", "chain": "MYIGKPIKRIEDLRLITGKGAYVDDIELPGTLFVAFVRSKYPHARIKVKKEEGIFTGEDINPGKDFPIATKETTYVGQPIAIVIAKDRYEAYDLIESVEVEYEELDYVLDPEKALEDKVKVHSGLSSNIYYHERWKGGDVEKAFKEADLTISDTLINQRVIASPLETRGALAYFDGNKLTFYSSTQSAHYLRRNLVDFLGFENIRVIQPDVGGAFGSKIIAHPEEYALAKLALMLRKPLKWVPTRTEEFISAGHGRDKKLKFEVAVKKDGTILGIRGTLIANLGAPYPDANDDESGNVKSTVRMLPGIYKIIGADIDAYAVHTNITPTQSYRGAGRPEGIYFIERIVNIVADELGIDQYEIRLKNAIDTLPYTNIFGVTYDSGNVKKLLEIGKKYYDELKKEDGCVGVSSYIEITAFGPWEVARISVKYDGKITLVTGTGPHGQGDATAFAQIAADVLELPIEKIEVRWGDTEIIEDGIGTWGSRTVTIGGSAVLLASQKLKDKLIEIGAKILNADKEEVEYKEGNVTHKKNGNKVTFNEIVKNAFKMGESLDTTAIYNVKQPPTTPYGVHLALVKVDGTGKVFVKKYVAVDDVGTVINPLLAEGQAIGGIVQGMAQALLEGAFFDENGQLLTTNFQDYPIPTAVEIPEKIDWYYEILGKSPHPTGSKGIGEAGAIAATPTIINAVEQCIKKRITKMPVKFEELVS", "notes": "STK23390, L-subunit of GAOR2, Sulfolobus tokodaii; Carries Mo-PCD; Cys405 and Cys689 form a disulfide bridge; also called L-subunit of GAOR2; ST23390"}}, "key": {"[1]": {"target": "LMS hetero-trimer unit of GAOR2 (STK23390/STK05620/STK05610) (Sulfolobus tokodaii (endogenous, purified from the cells))", "test": "crystal structure; GAOR2 purified from S. tokodaii, 8 mg/mL, sitting drop at 25°C, 0.1 M Na-acetate pH 4.5, 0.2 M CH3COONH4, 15% PEG 4,000; 2.2 Å; one LMS hetero-trimer in the asymmetric unit, (LMS)2 by crystallographic 2-fold symmetry"}, "[2]": {"target": "LMS hetero-trimer unit of GAOR2 (STK23390/STK05620/STK05610) (Sulfolobus tokodaii (endogenous, purified from the cells))", "test": "SEC; Superdex 200 10/30 gel filtration in buffer II (20 mM Tris-HCl pH 7.5, 0.25 M NaCl), molecular weights estimated against protein standards; oligomer of LMS hetero-trimer units"}, "[3]": {"target": "LMS hetero-trimer unit of GAOR1 (STK17810/STK17830/STK17820) (Sulfolobus tokodaii (endogenous, purified from the cells))", "test": "SEC; Superdex 200 10/30 gel filtration in buffer II (20 mM Tris-HCl pH 7.5, 0.25 M NaCl), molecular weights estimated against protein standards; oligomer of LMS hetero-trimer units"}, "[4]": {"target": "T1, GAOR2 (FAD site in M-subunit) (Sulfurisphaera tokodaii, UniProt Q974U9)", "T1 construct": "gene ST0562; same native (LMS)2 complex as P2; M-subunit 278 aa holds FAD; Putative oxidoreductase iron-sulfur subunit (S-subunit)", "T1 sequence (Q974U9 1-278)": "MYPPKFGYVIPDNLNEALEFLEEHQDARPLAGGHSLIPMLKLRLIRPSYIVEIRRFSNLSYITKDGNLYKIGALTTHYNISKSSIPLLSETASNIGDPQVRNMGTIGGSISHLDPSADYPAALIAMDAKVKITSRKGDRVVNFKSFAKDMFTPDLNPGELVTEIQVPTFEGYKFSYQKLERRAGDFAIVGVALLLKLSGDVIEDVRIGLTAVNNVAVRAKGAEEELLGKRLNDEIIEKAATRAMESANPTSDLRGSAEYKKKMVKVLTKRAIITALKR", "T1 sequence (Q96Y29 1-706 partner)": "B2 chain", "T1 sequence (Q974V0 1-168 partner)": "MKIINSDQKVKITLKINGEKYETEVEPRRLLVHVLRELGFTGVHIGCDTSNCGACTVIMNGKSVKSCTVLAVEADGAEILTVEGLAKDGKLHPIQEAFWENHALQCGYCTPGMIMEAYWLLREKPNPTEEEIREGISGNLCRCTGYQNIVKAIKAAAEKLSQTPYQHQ", "test": "X-ray crystal structure, […] Å", "type": "binding", "details": "bound in M-subunit; co-purified with native enzyme; crystals at pH 4.5"}, "[5]": {"substrate": "O=CCc1c[nH]c2ccccc12", "test": "purified protein", "type": "biochemical, Sulfurisphaera tokodaii", "details": "2 mM MV as electron acceptor, 50 mM MOPS-NaOH pH 7.0, 80°C"}, "[6]": {"substrate": "O=CC(O)COP(=O)(O)O", "test": "purified protein", "type": "biochemical, Sulfurisphaera tokodaii", "details": "2 mM MV as electron acceptor, 50 mM MOPS-NaOH pH 7.0, 80°C"}, "[7]": {"substrate": "O=C[C@H](O)CO", "test": "purified protein", "details": "0.1 mM DCPIP as electron acceptor, 50 mM MOPS-NaOH pH 7.0, 70°C"}, "[8]": {"substrate": "CC=O", "test": "purified protein", "type": "biochemical, Sulfurisphaera tokodaii", "details": "2 mM MV as electron acceptor, 50 mM MOPS-NaOH pH 7.0, 80°C"}, "[9]": {"target": "the molecule itself", "test": "crystal structure; GAOR2 purified from S. tokodaii, 8 mg/mL, sitting drop at 25°C, 0.1 M Na-acetate pH 4.5, 0.2 M CH3COONH4, 15% PEG 4,000; 2.2 Å; one LMS hetero-trimer in the asymmetric unit, (LMS)2 by crystallographic 2-fold symmetry"}}}
{"molecule": "LMS hetero-trimer unit of GAOR2 (STK23390/STK05620/STK05610) (complex)", "values": [{"measurement": "stoichiometry N", "setting": "[1]", "value": 2}, {"measurement": "stoichiometry N", "setting": "[2]", "value": 2}]}
{"molecule": "LMS hetero-trimer unit of GAOR1 (STK17810/STK17830/STK17820) (complex)", "values": [{"measurement": "stoichiometry N", "setting": "[3]", "value": 4}]}
{"molecule": "Cc1cc2nc3c(=O)[nH]c(=O)nc-3n(C[C@H](O)[C@H](O)[C@H](O)COP(=O)(O)OP(=O)(O)OC[C@H]3O[C@@H](n4cnc5c(N)ncnc54)[C@H](O)[C@@H]3O)c2cc1C", "note": "[FAD]", "values": [{"measurement": "X-ray crystal structure, 2.2 Å", "setting": "[4]", "value": "one Mo-PCD (L-subunit), one FAD (M-subunit), two [2Fe-2S] clusters"}]}
{"molecule": "B1", "values": [{"measurement": "Km", "setting": "[5]; enzyme about 70% pure", "value": "370 ± 390", "unit": "µM"}, {"measurement": "kcat", "setting": "[5]; enzyme about 70% pure", "value": "3.58 ± 2.49", "unit": "s⁻¹"}, {"measurement": "Km", "setting": "[6]; enzyme about 70% pure", "value": "3.5 ± 1.1", "unit": "µM"}, {"measurement": "kcat", "setting": "[6]; enzyme about 70% pure", "value": "0.43 ± 0.03", "unit": "s⁻¹"}, {"measurement": "Km", "setting": "[7]; enzyme about 70% pure", "value": "11 ± 0", "unit": "µM"}, {"measurement": "kcat", "setting": "[7]; enzyme about 70% pure", "value": "3.58 ± 0.11", "unit": "s⁻¹"}]}
{"molecule": "B2", "values": [{"measurement": "Km", "setting": "[5]", "value": "92 ± 17", "unit": "µM"}, {"measurement": "kcat", "setting": "[5]", "value": "2.77 ± 0.22", "unit": "s⁻¹"}, {"measurement": "Km", "setting": "[6]", "value": "85 ± 5", "unit": "µM"}, {"measurement": "kcat", "setting": "[6]", "value": "0.65 ± 0.01", "unit": "s⁻¹"}, {"measurement": "Km", "setting": "[8]", "value": "1330 ± 20", "unit": "µM"}, {"measurement": "kcat", "setting": "[8]", "value": "3.38 ± 0.02", "unit": "s⁻¹"}, {"measurement": "Km", "setting": "[7]", "value": "30 ± 9", "unit": "µM"}, {"measurement": "kcat", "setting": "[7]", "value": "50.5 ± 0.05", "unit": "s⁻¹"}, {"measurement": "stoichiometry N", "setting": "[9]", "value": 2}]}
